Laboratory results published in patent publication US20220177576A1 (DENALI THERAPEUTICS, published 2022).
Numbering of substitutions follows the chain as printed.

T1: human TREM2 expressed on HEK293-H6 cells (human, UniProt Q9NZC2 19-230)
T1 construct: Wild type human TREM2 stably co-expressed with DAP12 in HEK 293 cells (clone HEK293-H6); also called Human TREM2 HEK; TREM2 expressed by HEK293-H6 cells
T1 sequence: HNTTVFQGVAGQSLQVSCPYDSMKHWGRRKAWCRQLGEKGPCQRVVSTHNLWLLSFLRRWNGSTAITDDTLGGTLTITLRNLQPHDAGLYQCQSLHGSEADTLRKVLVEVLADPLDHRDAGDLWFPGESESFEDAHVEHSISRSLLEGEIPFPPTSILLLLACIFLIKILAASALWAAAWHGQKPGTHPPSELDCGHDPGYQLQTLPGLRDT

T2: recombinant human TREM2 ECD (human, UniProt Q9NZC2 19-172)
T2 construct: TREM2' / 'TREM2 ECD'; also called hTREM2; Human TREM2 (Biacore)
T2 sequence: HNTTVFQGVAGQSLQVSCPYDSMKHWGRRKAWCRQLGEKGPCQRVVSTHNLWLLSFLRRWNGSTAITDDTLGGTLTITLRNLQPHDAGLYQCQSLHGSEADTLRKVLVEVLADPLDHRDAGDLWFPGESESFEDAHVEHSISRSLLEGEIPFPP

T3: recombinant cynomolgus TREM2 ECD (cynomolgus, UniProt A0A2K5UY34 49-204)
T3 construct: extracellular domain; also called Cyno TREM2
T3 sequence: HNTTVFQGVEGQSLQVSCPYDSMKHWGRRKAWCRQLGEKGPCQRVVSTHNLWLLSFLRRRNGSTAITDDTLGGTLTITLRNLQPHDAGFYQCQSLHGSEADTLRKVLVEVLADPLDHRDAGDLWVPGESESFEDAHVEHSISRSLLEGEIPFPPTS

B1: TREM2 Ab (antibody, human IgG1, kappa, L234A L235A, V domains shown)
VH: EVQLVESGGGLVQPGGSLRLSCAASGFTFTDFYMSWVRQAPGKGLEWVSVIRNKANAYTAGYNPSVKGRFTISRDNSKNTLYLQMNSLRAEDTAVYYCARLTYGFDYWGQGTLVTVSS
VL: DIVMTQTPLSLPVTPGEPASISCQSSKSLLHSTGKTYLNWYLQKPGQSPQLLIYWMSTRASGVPDRFSGSGSGTDFTLKISRVEAEDVGVYYCQQFLEYPFTFGQGTKVEIKR
notes: also called corresponding anti-TREM2 antibody; TREM2 IgG
B2: ATV:TREM2 #5 (antibody, human IgG1, kappa, L234A L235A)
heavy 1: EVQLVESGGGLVQPGGSLRLSCAASGFTFTDFYMSWVRQAPGKGLEWVSVIRNKANAYTAGYNPSVKGRFTISRDNSKNTLYLQMNSLRAEDTAVYYCARLTYGFDYWGQGTLVTVSSASTKGPSVFPLAPSSKSTSGGTAALGCLVKDYFPEPVTVSWNSGALTSGVHTFPAVLQSSGLYSLSSVVTVPSSSLGTQTYICNVNHKPSNTKVDKKVEPKSCDKTHTCPPCPAPEAAGGPSVFLFPPKPKDTLMISRTPEVTCVVVDVSHEDPEVKFNWYVDGVEVHNAKTKPREEQYNSTYRVVSVLTVLHQDWLNGKEYKCKVSNKALPAPIEKTISKAKGQPREPQVYTLPPSRDELTKNQVSLWCLVKGFYPSDIAVEWESYGTEWSNYKTTPPVLDSDGSFFLYSKLTVSKEEWQQGFVFSCSVLHEALHSHYTQKSLSLSPGK
heavy 2: EVQLVESGGGLVQPGGSLRLSCAASGFTFTDFYMSWVRQAPGKGLEWVSVIRNKANAYTAGYNPSVKGRFTISRDNSKNTLYLQMNSLRAEDTAVYYCARLTYGFDYWGQGTLVTVSSASTKGPSVFPLAPSSKSTSGGTAALGCLVKDYFPEPVTVSWNSGALTSGVHTFPAVLQSSGLYSLSSVVTVPSSSLGTQTYICNVNHKPSNTKVDKKVEPKSCDKTHTCPPCPAPEAAGGPSVFLFPPKPKDTLMISRTPEVTCVVVDVSHEDPEVKFNWYVDGVEVHNAKTKPREEQYNSTYRVVSVLTVLHQDWLNGKEYKCKVSNKALPAPIEKTISKAKGQPREPQVYTLPPSRDELTKNQVSLSCAVKGFYPSDIAVEWESNGQPENNYKTTPPVLDSDGSFFLVSKLTVDKSRWQQGNVFSCSVLHEALHSHYTQKSLSLSPGK
light: DIVMTQTPLSLPVTPGEPASISCQSSKSLLHSTGKTYLNWYLQKPGQSPQLLIYWMSTRASGVPDRFSGSGSGTDFTLKISRVEAEDVGVYYCQQFLEYPFTFGQGTKVEIKRTVAAPSVFIFPPSDEQLKSGTASVVCLLNNFYPREAKVQWKVDNALQSGNSQESVTEQDSKDSTYSLSSTLTLSKADYEKHKVYACEVTHQGLSSPVTKSFNRGEC
notes: Knob/hole heterodimeric IgG1; the second carries hole, LALA and LS; also called anti-TREM2/CH35.23.4
B3: ATV:TREM2 #3 (antibody, human IgG1, kappa, L234A L235A)
heavy 1: B2 heavy 1 with S390V, S414T
heavy 2: B2 heavy 2
light: B2 light
notes: Knob/hole heterodimeric IgG1; the second carries hole, LALA and LS; also called anti-TREM2/CH35.23.3
B4: ATV:TREM2 #4 (antibody, human IgG1, kappa, L234A L235A)
heavy 1: B2 heavy 1 with S390V, S414T
heavy 2: not shown
light: B2 light
notes: Knob/hole heterodimeric IgG1; the second carries hole and LS only, without LALA; also called CH3C.35.23.3 cisLALA
B5: ATV:TREM2 #2 (antibody, human IgG1, kappa, L234A L235A)
heavy 1: B2 heavy 1 with Y385F
heavy 2: B2 heavy 2
light: B2 light
notes: Knob/hole heterodimeric IgG1; the second carries hole, LALA and LS; also called anti-TREM2/CH35.23.1.1

The binders below were run against T1, human TREM2 expressed on HEK293-H6 cells (assay: flow cytometry, dose titration on HEK 293 cells expressing human TREM2 (TREM2-expressing HEK)).
Method: (§1) After incubation, the cells were centrifuged and washed in FACS buffer (PBS+0.5% BSA) twice. Mixed cells were resuspended in FACS buffer with human Trustain FcX solution (Biolegend, Catalog No. 422302) at a density of 10⁶/mL per cell line. The mixed cell lines were seeded at 200,000 cells per well in a 96-well round-bottom plate and incubated for 20 minutes at room temperature. After incubation, the cells were centrifuged and incubated with a dose titration of anti-TREM2 antibodies for 45 minutes on ice. After incubation, the cells were centrifuged and washed with FACS buffer three times. The cells were then incubated with secondary antibody (Alexa Fluor 647 AffiniPure F(ab′)2 Fragment Goat Anti-human IgG(H+L), Jackson ImmunoResearch Laboratories, Catalog No. 109-606-088, 1:800 dilution) for 30 minutes on ice. After incubation, the cells were washed with FACS buffer three times, resuspended in 100 μL of FACS buffer, and analyzed by flow cytometry (BD FACSCanto II, San Jose, Calif.), for which 30,000 events were obtained for each sample. Mean fluorescence intensity per cells were calculated by FlowJo software and used for generating dose response binding curve.

| EC50 (read off the curve) | Binder |
| --- | --- |
| ~0.4 nM | B1 |

Each binder was assayed against T2, recombinant human TREM2 ECD (assay: SPR (Biacore), antibody captured by anti-human Fab, TREM2 ECD as analyte).
Method: (§2) Surface plasmon resonance (Biacore™ 8K instrument) was used to measure anti-TREM2 antibody affinities for human and cynomolgus TREM2 ECD. Anti-TREM2 antibodies were captured using Human Fab Capture Kit (GE Healthcare Life Sciences, Catalog No. 28958325) on a Biacore Series S CM5 sensor chip (GE Healthcare Life Sciences, Catalog No. 29149604). Serial 3-fold dilutions of recombinant human or cynomolgus TREM2 were injected at a flow rate of 30 μL/min. Antibody binding was monitored for 300 seconds, followed by monitoring of antibody dissociation for 600+ seconds in HBS-EP+ running buffer (GE Healthcare Life Sciences, Catalog No. BR100669). The binding response was corrected by subtracting the RU value from a blank flow cell. A 1:1 Languir model of simultaneous fitting of kₒₙ and koff was used for kinetics analysis. KD binding values were calculated from kₒₙ and koff.

| Kd | Binder |
| --- | --- |
| 5.7 nM | B2 |
| 3 nM | B3 |
| 2 nM | B4 |
| 5.4 nM | B5 |

Each binder was assayed against T3, recombinant cynomolgus TREM2 ECD (assay: SPR (Biacore), antibody captured by anti-human Fab, cyno TREM2 ECD as analyte).
Method: as §2

| Kd | Binder |
| --- | --- |
| 2.4 nM | B2 |
| 2.2 nM | B3 |
| 2.2 nM | B4 |
| 2.4 nM | B5 |

Each binder was assayed against T4, human transferrin receptor (human, UniProt P02786 89-760, limits assumed) (assay: SPR (Biacore), antibody captured by anti-human Fab on CM5 chip, human TfR as analyte, 1:1 model).
T4 construct: also called Human TfR; TfR
T4 sequence (P02786 89-760 limits assumed): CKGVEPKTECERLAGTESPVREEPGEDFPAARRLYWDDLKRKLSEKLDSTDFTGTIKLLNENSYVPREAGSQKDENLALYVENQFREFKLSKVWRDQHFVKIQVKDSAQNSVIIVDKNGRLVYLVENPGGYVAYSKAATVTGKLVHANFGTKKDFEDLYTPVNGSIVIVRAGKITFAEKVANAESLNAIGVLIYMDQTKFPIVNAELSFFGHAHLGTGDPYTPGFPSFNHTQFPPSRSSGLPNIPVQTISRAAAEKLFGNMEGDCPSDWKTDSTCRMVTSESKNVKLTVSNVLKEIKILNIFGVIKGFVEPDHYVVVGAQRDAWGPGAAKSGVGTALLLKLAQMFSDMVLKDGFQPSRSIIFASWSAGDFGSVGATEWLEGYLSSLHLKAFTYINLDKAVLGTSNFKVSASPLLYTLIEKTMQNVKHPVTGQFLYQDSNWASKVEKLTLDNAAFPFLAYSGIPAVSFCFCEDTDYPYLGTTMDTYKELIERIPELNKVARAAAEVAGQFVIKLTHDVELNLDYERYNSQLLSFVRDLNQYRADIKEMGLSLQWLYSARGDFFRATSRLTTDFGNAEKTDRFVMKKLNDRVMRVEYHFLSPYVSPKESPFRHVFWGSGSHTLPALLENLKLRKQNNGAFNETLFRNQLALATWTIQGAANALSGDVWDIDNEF
Method: Binding of anti-TREM2 protein to human transferrin receptor was determined as follows: anti-human-Fab was immobilized on a CM5 chip, and the anti-TREM2 protein was captured. Full-length human TfR or human TfR apical domain at serial dilution (e.g., concentrations of 1-1,000 nM) was flowed over the chip (180 second association time) and then allowed to dissociate. Fitting was performed using a 1:1 binding model.

| Kd | Binder |
| --- | --- |
| 620 nM | B2 |
| 1400 nM | B3 |
| 650 nM | B5 |

These binders were tested against T1, human TREM2 expressed on HEK293-H6 cells (assay: flow cytometry on human TREM2-expressing HEK cells).
Method: as §1

| EC50 | Binder |
| --- | --- |
| 3.6 nM | B2 |
| 4.6 nM | B3 |
| 4.9 nM | B5 |
